From patent US20230406885A1, “CYCLIC PEPTIDES FOR TRAPPING INTERLEUKIN-1 BETA” (MERCK SHARP & DOHME LLC, priority 2022, published 2023) come the findings set out here.

*1 amine or outer side, *2 acyl side, *3 side chain or, on linkers, in order; H or OH if unused. [ ]: non-standard residue; d: D form. 3AzaPhe4AcPip = (S)-3-(6-(4-acetylpiperazin-1-yl)pyridin-3-yl)-2-aminopropanoic acid, CC(=O)N1CCN(c2ccc(C[C@H](N[*:1])C(=O)[*:2])cn2)CC1; Pro(trans-4-NH2) = O=C([C@@H]1C[C@@H](N[*:3])CN1[*:1])[*:2]; Trp(βS-Me,4-F) = C[C@@H](c1c[nH]c2cccc(F)c12)[C@H](N)C(=O)O; Bip(4'-COOH) = N[C@@H](Cc1ccc(-c2ccc(C(=O)O)cc2)cc1)C(=O)O; Phe(4-COOH) = N[C@@H](Cc1ccc(C(=O)O)cc1)C(=O)O; h3Pal(5-CN) = N#Cc1cncc(CC[C@H](N)C(=O)O)c1; Ala(4-THP) = N[C@@H](CC1CCOCC1)C(=O)O; hTyr = N[C@@H](CCc1ccc(O)cc1)C(=O)O; dDab = NCC[C@@H](N)C(=O)O; dNMeA = CN[C@H](C)C(=O)O; Nva = CCC[C@H](N)C(=O)O

This assay deals with Recombinant human IL-1β (BioLegend 579404) (human, UniProt P01584 117-269). Put plainly: cell-based or functional assay.

B1: SEQ ID NO: 67 (peptide)
peptide: cyclo([Bip(4'-COOH)]W[Phe(4-COOH)]G[Pro(trans-4-NH2)][Trp(βS-Me,4-F)]D[dNMeA]G[Bip(4'-COOH)]KL[dA][hTyr])
SMILES: CC(C)C[C@@H]1NC(=O)[C@H](CCCCN)NC(=O)[C@H](Cc2ccc(-c3ccc(C(=O)O)cc3)cc2)NC(=O)CNC(=O)[C@@H](C)N(C)C(=O)[C@H](CC(=O)O)NC(=O)[C@H]([C@@H](C)c2c[nH]c3cccc(F)c23)NC(=O)[C@@H]2C[C@@H](N)CN2C(=O)CNC(=O)[C@H](Cc2ccc(C(=O)O)cc2)NC(=O)[C@H](Cc2c[nH]c3ccccc23)NC(=O)[C@H](Cc2ccc(-c3ccc(C(=O)O)cc3)cc2)NC(=O)[C@H](CCc2ccc(O)cc2)NC(=O)[C@@H](C)NC1=O
For the molecule B1, the “MRC5 IC50” value stood at 46 pM.

B2: SEQ ID NO: 66 (peptide)
peptide: cyclo([Bip(4'-COOH)]W[Phe(4-COOH)]G[Pro(trans-4-NH2)][Trp(βS-Me,4-F)]D[dNMeA]G[Bip(4'-COOH)]KL[dA][h3Pal(5-CN)])
SMILES: CC(C)C[C@@H]1NC(=O)[C@H](CCCCN)NC(=O)[C@H](Cc2ccc(-c3ccc(C(=O)O)cc3)cc2)NC(=O)CNC(=O)[C@@H](C)N(C)C(=O)[C@H](CC(=O)O)NC(=O)[C@H]([C@@H](C)c2c[nH]c3cccc(F)c23)NC(=O)[C@@H]2C[C@@H](N)CN2C(=O)CNC(=O)[C@H](Cc2ccc(C(=O)O)cc2)NC(=O)[C@H](Cc2c[nH]c3ccccc23)NC(=O)[C@H](Cc2ccc(-c3ccc(C(=O)O)cc3)cc2)NC(=O)[C@H](CCc2cncc(C#N)c2)NC(=O)[C@@H](C)NC1=O
Regarding B2, the “MRC5 IC50” value was determined as 29.9 pM.

B3: SEQ ID NO: 7 (peptide)
peptide: cyclo([3AzaPhe4AcPip]W[Phe(4-COOH)]G[Pro(trans-4-NH2)][Trp(βS-Me,4-F)]D[dNMeA]G[Bip(4'-COOH)]KL[dDab][hTyr])
SMILES: CC(=O)N1CCN(c2ccc(C[C@@H]3NC(=O)[C@H](CCc4ccc(O)cc4)NC(=O)[C@@H](CCN)NC(=O)[C@H](CC(C)C)NC(=O)[C@H](CCCCN)NC(=O)[C@H](Cc4ccc(-c5ccc(C(=O)O)cc5)cc4)NC(=O)CNC(=O)[C@@H](C)N(C)C(=O)[C@H](CC(=O)O)NC(=O)[C@H]([C@@H](C)c4c[nH]c5cccc(F)c45)NC(=O)[C@@H]4C[C@@H](N)CN4C(=O)CNC(=O)[C@H](Cc4ccc(C(=O)O)cc4)NC(=O)[C@H](Cc4c[nH]c5ccccc45)NC3=O)cn2)CC1
Turning to B3, the “MRC5 IC50” value was 135 pM.

B4: SEQ ID NO: 71 (peptide)
peptide: cyclo([Bip(4'-COOH)]W[Phe(4-COOH)]G[Pro(trans-4-NH2)][Trp(βS-Me,4-F)]D[dNMeA]G[Bip(4'-COOH)]K[Nva][dA][hTyr])
SMILES: CCC[C@@H]1NC(=O)[C@H](CCCCN)NC(=O)[C@H](Cc2ccc(-c3ccc(C(=O)O)cc3)cc2)NC(=O)CNC(=O)[C@@H](C)N(C)C(=O)[C@H](CC(=O)O)NC(=O)[C@H]([C@@H](C)c2c[nH]c3cccc(F)c23)NC(=O)[C@@H]2C[C@@H](N)CN2C(=O)CNC(=O)[C@H](Cc2ccc(C(=O)O)cc2)NC(=O)[C@H](Cc2c[nH]c3ccccc23)NC(=O)[C@H](Cc2ccc(-c3ccc(C(=O)O)cc3)cc2)NC(=O)[C@H](CCc2ccc(O)cc2)NC(=O)[C@@H](C)NC1=O
With B4, the “MRC5 IC50” value amounted to 92.6 pM.

B5: SEQ ID NO: 68 (peptide)
peptide: cyclo([Bip(4'-COOH)]W[Phe(4-COOH)]G[Pro(trans-4-NH2)][Trp(βS-Me,4-F)]D[dNMeA]G[Bip(4'-COOH)]KL[dDab][hTyr])
SMILES: CC(C)C[C@@H]1NC(=O)[C@H](CCCCN)NC(=O)[C@H](Cc2ccc(-c3ccc(C(=O)O)cc3)cc2)NC(=O)CNC(=O)[C@@H](C)N(C)C(=O)[C@H](CC(=O)O)NC(=O)[C@H]([C@@H](C)c2c[nH]c3cccc(F)c23)NC(=O)[C@@H]2C[C@@H](N)CN2C(=O)CNC(=O)[C@H](Cc2ccc(C(=O)O)cc2)NC(=O)[C@H](Cc2c[nH]c3ccccc23)NC(=O)[C@H](Cc2ccc(-c3ccc(C(=O)O)cc3)cc2)NC(=O)[C@H](CCc2ccc(O)cc2)NC(=O)[C@@H](CCN)NC1=O
Regarding B5, the “MRC5 IC50” value is 296 pM.

B6: SEQ ID NO: 70 (peptide)
peptide: cyclo([Bip(4'-COOH)]W[Phe(4-COOH)]G[Pro(trans-4-NH2)][Trp(βS-Me,4-F)]D[dNMeA]G[Bip(4'-COOH)]KLG[hTyr])
SMILES: CC(C)C[C@@H]1NC(=O)[C@H](CCCCN)NC(=O)[C@H](Cc2ccc(-c3ccc(C(=O)O)cc3)cc2)NC(=O)CNC(=O)[C@@H](C)N(C)C(=O)[C@H](CC(=O)O)NC(=O)[C@H]([C@@H](C)c2c[nH]c3cccc(F)c23)NC(=O)[C@@H]2C[C@@H](N)CN2C(=O)CNC(=O)[C@H](Cc2ccc(C(=O)O)cc2)NC(=O)[C@H](Cc2c[nH]c3ccccc23)NC(=O)[C@H](Cc2ccc(-c3ccc(C(=O)O)cc3)cc2)NC(=O)[C@H](CCc2ccc(O)cc2)NC(=O)CNC1=O
Consider B6, for which the “MRC5 IC50” value came out at 97.3 pM.

B7: SEQ ID NO: 72 (peptide)
peptide: cyclo([Bip(4'-COOH)]W[Phe(4-COOH)]G[Pro(trans-4-NH2)][Trp(βS-Me,4-F)]D[dNMeA]G[Bip(4'-COOH)]KS[dA][hTyr])
SMILES: C[C@@H]1C(=O)NCC(=O)N[C@@H](Cc2ccc(-c3ccc(C(=O)O)cc3)cc2)C(=O)N[C@@H](CCCCN)C(=O)N[C@@H](CO)C(=O)N[C@H](C)C(=O)N[C@@H](CCc2ccc(O)cc2)C(=O)N[C@@H](Cc2ccc(-c3ccc(C(=O)O)cc3)cc2)C(=O)N[C@@H](Cc2c[nH]c3ccccc23)C(=O)N[C@@H](Cc2ccc(C(=O)O)cc2)C(=O)NCC(=O)N2C[C@H](N)C[C@H]2C(=O)N[C@@H]([C@@H](C)c2c[nH]c3cccc(F)c23)C(=O)N[C@@H](CC(=O)O)C(=O)N1C
For B7, the “MRC5 IC50” value worked out at 107 pM.

B8: SEQ ID NO: 69 (peptide)
peptide: cyclo([Bip(4'-COOH)]W[Phe(4-COOH)]G[Pro(trans-4-NH2)][Trp(βS-Me,4-F)]D[dNMeA]G[Bip(4'-COOH)]KL[dS][hTyr])
SMILES: CC(C)C[C@@H]1NC(=O)[C@H](CCCCN)NC(=O)[C@H](Cc2ccc(-c3ccc(C(=O)O)cc3)cc2)NC(=O)CNC(=O)[C@@H](C)N(C)C(=O)[C@H](CC(=O)O)NC(=O)[C@H]([C@@H](C)c2c[nH]c3cccc(F)c23)NC(=O)[C@@H]2C[C@@H](N)CN2C(=O)CNC(=O)[C@H](Cc2ccc(C(=O)O)cc2)NC(=O)[C@H](Cc2c[nH]c3ccccc23)NC(=O)[C@H](Cc2ccc(-c3ccc(C(=O)O)cc3)cc2)NC(=O)[C@H](CCc2ccc(O)cc2)NC(=O)[C@@H](CO)NC1=O
On to B8, for which the “MRC5 IC50” value worked out at 334 pM.

B9: SEQ ID NO: 65 (peptide)
peptide: cyclo([Bip(4'-COOH)]W[Phe(4-COOH)]G[Pro(trans-4-NH2)][Trp(βS-Me,4-F)]D[dNMeA]G[Bip(4'-COOH)]K[Ala(4-THP)][dA][hTyr])
SMILES: C[C@@H]1C(=O)NCC(=O)N[C@@H](Cc2ccc(-c3ccc(C(=O)O)cc3)cc2)C(=O)N[C@@H](CCCCN)C(=O)N[C@@H](CC2CCOCC2)C(=O)N[C@H](C)C(=O)N[C@@H](CCc2ccc(O)cc2)C(=O)N[C@@H](Cc2ccc(-c3ccc(C(=O)O)cc3)cc2)C(=O)N[C@@H](Cc2c[nH]c3ccccc23)C(=O)N[C@@H](Cc2ccc(C(=O)O)cc2)C(=O)NCC(=O)N2C[C@H](N)C[C@H]2C(=O)N[C@@H]([C@@H](C)c2c[nH]c3cccc(F)c23)C(=O)N[C@@H](CC(=O)O)C(=O)N1C
For B9, the “MRC5 IC50” value was 15.8 pM.
